Laboratory results taken from paper PMC3510498.
pKd: −log10 of the molar value. Blank lines part the entries; values can stand above or below the substance they belong to.

Columns and labels:
[1] = target: Thermoanaerobacter tengcongensis RecO (Thermoanaerobacter tengcongensis MB4) (UniProt Q8RB48); test: SPR; Biacore3000, 25°C; TTERecO amine-coupled to CM5 chip (4900 RU); TTERecR and mutants injected (0.0125-4 µM), 20 mM HEPES pH 7.4, 200 mM NaCl, 0.005% Tween 20; 1:1 Langmuir model; apparent KD
[2] = target: TTERecR_(1-166) C-terminal deletion mutant (Thermoanaerobacter tengcongensis MB4) (UniProt Q8RDI4); test: SEC; Superdex-200, 0.5 ml/min, 50 mM Tris-HCl pH 7.5, 300 mM NaCl, 200 µg/ml, absorbance at 280 nm
[3] = target: TTERecR_(1-180) C-terminal deletion mutant (Thermoanaerobacter tengcongensis MB4) (UniProt Q8RDI4); test: as above
[4] = target: TTERecR_(16-196) N-terminal deletion mutant (Thermoanaerobacter tengcongensis MB4) (UniProt Q8RDI4); test: as above
[5] = target: Thermoanaerobacter tengcongensis RecR, full-length (Thermoanaerobacter tengcongensis MB4) (UniProt Q8RDI4); test: SEC + AUC; SEC: Superdex-200, 0.5 ml/min, 50 mM Tris-HCl pH 7.5, 300 mM NaCl, 200 µg/ml; AUC: 20°C, 1 mg/ml in 5 mM Tris-HCl pH 7.5, 50 mM NaCl, 60 000 rpm (TTERecR, TTERecO) or 55 000 rpm (TTERecOR complex), SEDFIT
[6] = target: Thermoanaerobacter tengcongensis RecO (Thermoanaerobacter tengcongensis MB4) (UniProt Q8RB48); test: as above

- pKd [1]: 6.44
- stoichiometry N [2]: 2
Substance: TTERecR_(1-166) C-terminal deletion mutant (from UniProt Q8RDI4 1-166) (domain or fragment)

- pKd [1]: 5.83
- stoichiometry N [3]: 2
Substance: TTERecR_(1-180) C-terminal deletion mutant (from UniProt Q8RDI4 1-180) (domain or fragment)

- stoichiometry N [4]: 2
Substance: TTERecR_(16-196) N-terminal deletion mutant (from UniProt Q8RDI4 16-196) (domain or fragment)

- stoichiometry N [5]: 2
- stoichiometry N (RecR per RecO) [6]: 2
- pKd [1]: 6.73
Substance: Thermoanaerobacter tengcongensis RecR, full-length (from UniProt Q8RDI4 1-199) (natural protein)
